T1: (MBP-)Enp1 (S. cerevisiae, UniProt P38333 1-483)
T1 construct: Enp1, S. cerevisiae; gene amplified from genomic DNA, cloned between SfoI and BamHI of pSV272; source: E. coli Rosetta, purified (Ni-NTA, MonoQ, gel filtration); not shown: His6-MBP, N-terminal, kept
T1 sequence (looked up): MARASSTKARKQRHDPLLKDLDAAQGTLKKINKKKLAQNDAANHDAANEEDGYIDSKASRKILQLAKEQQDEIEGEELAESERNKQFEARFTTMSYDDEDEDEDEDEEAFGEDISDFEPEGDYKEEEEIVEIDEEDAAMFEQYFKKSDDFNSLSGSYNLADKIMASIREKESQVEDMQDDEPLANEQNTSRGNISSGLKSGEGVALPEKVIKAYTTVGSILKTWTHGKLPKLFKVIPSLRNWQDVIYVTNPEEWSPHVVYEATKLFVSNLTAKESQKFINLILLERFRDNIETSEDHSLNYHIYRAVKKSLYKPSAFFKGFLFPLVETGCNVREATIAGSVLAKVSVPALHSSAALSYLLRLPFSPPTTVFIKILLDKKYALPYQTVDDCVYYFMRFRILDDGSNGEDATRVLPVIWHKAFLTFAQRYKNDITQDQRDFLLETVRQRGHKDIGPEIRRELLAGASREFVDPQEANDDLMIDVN

T2: Enp1 (untagged) (S. cerevisiae, UniProt P38333 1-483)
T2 construct: Enp1, S. cerevisiae; gene amplified from genomic DNA, cloned between SfoI and BamHI of pSV272; source: E. coli Rosetta, purified (Ni-NTA, TEV cleavage, MonoQ, gel filtration); not shown: His6-MBP, N-terminal, cleaved
T2 sequence (looked up): T1 sequence (looked up)

T3: (MBP-)Rio2 (S. cerevisiae, UniProt P40160 1-425)
T3 construct: Rio2, S. cerevisiae; gene amplified from genomic DNA with primers from the start codon to the stop codon, cloned between SfoI and BamHI of pSV272; 93 kDa as printed; source: E. coli Rosetta, purified (Ni column, MonoQ, gel filtration); not shown: His6-MBP, N-terminal, kept
T3 sequence (looked up): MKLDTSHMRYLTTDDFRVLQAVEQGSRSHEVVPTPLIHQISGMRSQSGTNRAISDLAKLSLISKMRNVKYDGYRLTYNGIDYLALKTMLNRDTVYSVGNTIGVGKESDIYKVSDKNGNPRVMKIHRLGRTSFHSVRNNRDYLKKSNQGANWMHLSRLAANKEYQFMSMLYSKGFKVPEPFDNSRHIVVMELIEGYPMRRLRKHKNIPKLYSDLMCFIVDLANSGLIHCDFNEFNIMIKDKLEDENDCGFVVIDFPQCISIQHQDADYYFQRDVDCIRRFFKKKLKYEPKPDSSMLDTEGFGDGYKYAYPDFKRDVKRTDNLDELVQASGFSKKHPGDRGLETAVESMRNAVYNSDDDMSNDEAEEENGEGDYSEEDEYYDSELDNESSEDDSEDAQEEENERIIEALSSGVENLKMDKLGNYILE

T4: (MBP-)Tsr1 (S. cerevisiae, UniProt Q07381 1-788)
T4 construct: Tsr1, S. cerevisiae; gene amplified from genomic DNA with primers from the start codon to the stop codon, cloned between SfoI and HindIII of pSV272; source: E. coli Rosetta, purified (Ni-NTA, MonoQ, gel filtration; TEV protease omitted); not shown: His6-MBP, N-terminal, kept
T4 sequence (looked up): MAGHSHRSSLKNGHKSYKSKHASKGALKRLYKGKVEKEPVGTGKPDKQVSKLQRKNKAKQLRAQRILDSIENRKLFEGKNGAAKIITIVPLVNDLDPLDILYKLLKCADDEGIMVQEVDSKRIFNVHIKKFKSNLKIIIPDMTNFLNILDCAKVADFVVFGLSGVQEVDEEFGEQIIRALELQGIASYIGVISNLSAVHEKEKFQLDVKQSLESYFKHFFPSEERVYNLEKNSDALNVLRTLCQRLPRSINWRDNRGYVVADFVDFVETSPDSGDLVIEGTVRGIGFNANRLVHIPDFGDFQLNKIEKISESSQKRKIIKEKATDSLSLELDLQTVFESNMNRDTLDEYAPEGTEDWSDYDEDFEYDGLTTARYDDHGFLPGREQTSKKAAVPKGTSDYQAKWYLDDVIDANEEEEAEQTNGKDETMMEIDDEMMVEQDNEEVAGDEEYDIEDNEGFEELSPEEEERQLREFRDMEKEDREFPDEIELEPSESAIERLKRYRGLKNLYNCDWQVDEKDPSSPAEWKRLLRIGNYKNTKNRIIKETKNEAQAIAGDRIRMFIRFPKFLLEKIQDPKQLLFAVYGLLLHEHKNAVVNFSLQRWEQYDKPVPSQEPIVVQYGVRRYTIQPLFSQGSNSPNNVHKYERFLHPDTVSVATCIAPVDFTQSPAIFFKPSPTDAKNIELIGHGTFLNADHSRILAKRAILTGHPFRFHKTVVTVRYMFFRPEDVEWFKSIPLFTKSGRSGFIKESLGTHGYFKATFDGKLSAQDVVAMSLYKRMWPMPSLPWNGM

B1: Ltv1 (untagged) (natural protein, S. cerevisiae, UniProt P34078 1-463, looked up)
chain: MSKKFSSKNSQRYVVVHRPHDDPSFYDTDASAHVLVPVSNPNKTSPEADLRKKDVSSTKPKGRRAHVGEAALYGINFDDSEYDYTQHLKPIGLDPENSIFIASKGNEQKVEKKNIEDLFIEPKYRRDEIEKDDALPVFQRGMAKPEYLLHQQDTTDEIRGFKPDMNPALREVLEALEDEAYVVNDDVVVEDISKKTQLQGDNYGEEEKEDDIFAQLLGSGEAKDEDEFEDEFDEWDIDNVENFEDENYVKEMAQFDNIENLEDLENIDYQADVRRFQKDNSILEKHNSDDEFSNAGLDSVNPSEEEDVLGELPSIQDKSKTGKKKRKSRQKKGAMSDVSGFSMSSSAIARTETMTVLDDQYDQIINGYENYEEELEEDEEQNYQPFDMSAERSDFESMLDDFLDNYELESGGRKLAKKDKEIERLKEAADEVSKGKLSQRRNRERQEKKKLEKVTNTLSSLKF
notes: Ltv1, S. cerevisiae; gene amplified from genomic DNA with primers from the start codon to the stop codon, cloned between SfoI and BamHI of pSV272; also called export adaptor Ltv1; source: E. coli Rosetta, purified (Ni-NTA, TEV cleavage, MonoQ, gel filtration); not shown: His6-MBP, N-terminal, cleaved
B2: (MBP-)Ltv1 (natural protein, S. cerevisiae, UniProt P34078 1-463, looked up)
chain: B1 chain
notes: Ltv1, S. cerevisiae; gene amplified from genomic DNA with primers from the start codon to the stop codon, cloned between SfoI and BamHI of pSV272; source: E. coli Rosetta, purified (Ni-NTA, MonoQ, gel filtration; TEV protease omitted); not shown: His6-MBP, N-terminal, kept
B3: (MBP-)Dim1 (enzyme, S. cerevisiae, UniProt P41819 1-318, looked up)
chain: MGKAAKKKYSGATSSKQVSAEKHLSSVFKFNTDLGQHILKNPLVAQGIVDKAQIRPSDVVLEVGPGTGNLTVRILEQAKNVVAVEMDPRMAAELTKRVRGTPVEKKLEIMLGDFMKTELPYFDICISNTPYQISSPLVFKLINQPRPPRVSILMFQREFALRLLARPGDSLYCRLSANVQMWANVTHIMKVGKNNFRPPPQVESSVVRLEIKNPRPQVDYNEWDGLLRIVFVRKNRTISAGFKSTTVMDILEKNYKTFLAMNNEMVDDTKGSMHDVVKEKIDTVLKETDLGDKRAGKCDQNDFLRLLYAFHQVGIHFS
notes: Dim1, S. cerevisiae; gene amplified from genomic DNA with primers from the start codon to the stop codon, cloned between SfoI and HindIII of pSV272; source: E. coli Rosetta, purified (Ni-NTA, MonoS, gel filtration; no TEV protease); not shown: His6-MBP, N-terminal, kept
B4: Dim1 (untagged) (enzyme, S. cerevisiae, UniProt P41819 1-318, looked up)
chain: B3 chain
notes: Dim1, S. cerevisiae; gene amplified from genomic DNA with primers from the start codon to the stop codon, cloned between SfoI and HindIII of pSV272; also called methylase Dim1; source: E. coli Rosetta, purified (Ni-NTA, TEV cleavage, MonoS, gel filtration); not shown: His6-MBP, N-terminal, cleaved
B5: (MBP-)Rps15 (natural protein, S. cerevisiae, UniProt Q01855 2-142, looked up)
chain: SQAVNAKKRVFKTHSYRGVDLEKLLEMSTEDFVKLAPARVRRRFARGMTSKPAGFMKKLRAAKLAAPENEKPAPVRTHMRNMIIVPEMIGSVVGIYNGKAFNQVEIRPEMLGHYLGEFSITYTPVRHGRAGATTSRFIPLK
notes: ribosomal protein Rps15, S. cerevisiae; gene amplified from genomic DNA, cloned between SfoI and HindIII of pSV272; source: E. coli Rosetta, purified (Ni-NTA, MonoQ, gel filtration); not shown: His6-MBP, N-terminal, kept
B6: Rio2 (untagged) (enzyme, S. cerevisiae, UniProt P40160 1-425, looked up)
chain: T3 sequence (looked up)
notes: Rio2, S. cerevisiae; Cloning into the NheI site of pET23a may leave a few vector residues before the first methionine; also called kinase Rio2; protein kinase Rio2; source: E. coli Rosetta, purified (Hi-Trap Q, MonoQ, gel filtration)

What all share (test): pull-down; 3 µM MBP-tagged bait and 5 µM untagged prey in 50 mM HEPES pH 7.5, 150 mM KCl; 10 min at room temperature, 1 h at 4°C with amylose resin; washed, eluted with 20 mM maltose; SDS-PAGE, Coomassie
Common to all, as to conditions: both partners purified

The target in one test is T1, (MBP-)Enp1.
For a further test, the target named is T2, Enp1 (untagged).
The test “Rio2 (untagged)” concerns the target B6.
In another test the target is T3, (MBP-)Rio2.
The test “Ltv1 (untagged)” addresses B1.
The next test deals with T4, (MBP-)Tsr1.

B1: the binding result with (MBP-)Enp1 was “binds”.

As to B2, the binding result in the test with Enp1 (untagged) was “binds”.

As to B3, the binding result with Rio2 (untagged) is recorded as “binds”.

Consider B4, for which the binding result with (MBP-)Rio2 is “binds”.

For B5, the binding result with Rio2 (untagged) and in the test with Ltv1 (untagged) was “binds” throughout.

For the molecule B6, the binding result with (MBP-)Tsr1 is reported as “binds”.
